# Patent US20250367237A1 (TENEOBIO, published 2025)
# T1: human c-Kit, GNNK- isoform, expressed on SEM cells (human, UniProt P10721 26-976)
# T1 chain: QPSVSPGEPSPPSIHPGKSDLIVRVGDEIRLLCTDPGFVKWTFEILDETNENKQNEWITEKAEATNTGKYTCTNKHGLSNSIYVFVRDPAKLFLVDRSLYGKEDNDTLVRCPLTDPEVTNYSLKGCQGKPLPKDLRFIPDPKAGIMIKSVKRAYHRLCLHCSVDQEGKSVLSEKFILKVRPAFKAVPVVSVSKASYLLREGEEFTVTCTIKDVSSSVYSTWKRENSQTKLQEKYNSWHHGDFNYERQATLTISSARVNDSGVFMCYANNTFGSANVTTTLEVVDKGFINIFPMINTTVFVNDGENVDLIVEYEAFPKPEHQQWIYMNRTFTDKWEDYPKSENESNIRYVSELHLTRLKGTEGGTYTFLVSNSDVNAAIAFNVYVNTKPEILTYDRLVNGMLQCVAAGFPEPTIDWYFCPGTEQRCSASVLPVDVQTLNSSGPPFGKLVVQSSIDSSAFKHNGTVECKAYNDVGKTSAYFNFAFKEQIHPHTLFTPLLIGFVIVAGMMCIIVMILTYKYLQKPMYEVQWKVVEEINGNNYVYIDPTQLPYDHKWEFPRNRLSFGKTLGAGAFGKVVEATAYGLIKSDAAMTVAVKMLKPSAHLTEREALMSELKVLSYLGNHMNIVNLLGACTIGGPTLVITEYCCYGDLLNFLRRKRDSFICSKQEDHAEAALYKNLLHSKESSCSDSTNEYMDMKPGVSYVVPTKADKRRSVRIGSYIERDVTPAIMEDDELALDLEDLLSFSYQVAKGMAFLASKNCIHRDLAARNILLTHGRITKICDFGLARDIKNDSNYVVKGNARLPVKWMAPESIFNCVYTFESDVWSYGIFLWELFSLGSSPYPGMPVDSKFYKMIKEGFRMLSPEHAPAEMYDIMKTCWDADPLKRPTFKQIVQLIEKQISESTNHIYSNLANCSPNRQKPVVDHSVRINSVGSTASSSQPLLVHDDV
# Tests used:
# [1] = molecular target: T2, recombinant human c-Kit (Acro Biosystems, #CD7-H52H4) (human, UniProt P10721 26-520); assay: BLI (Octet HTX), antibody on AHC sensors, c-Kit in solution, 1:1 model
# T2 construct: Bought protein; It was loaded on Ni-NTA sensors for binning, so it probably carries a His tag; also called antigen
# Experimental: Table E3 summarizes affinity and epitope bin information for example anti-c-Kit single domain antibodies of the present disclosure. The affinity of each single domain antibody to recombinant human c-Kit (Acro Biosystems, #CD7-H52H4) was measured by Bio-layer interferometry (BLI) using an Octet HTX. AHC (Anti-hIgG Fc Capture) sensors were used to immobilize test antibody at 5 μg/mL. After baseline readings, sensors were dipped into antigen solutions (starting at 500 nM followed by a 7-point, 2-fold dilution series). Association and dissociation were measured for 180 and 240 seconds, respectively. Data were analyzed with Octet Data Analysis v11.0 HT (ForteBio) using a standard 1:1 binding model. Epitope bins for the single domain antibodies were determined by an in-tandem competition BLI binding experiment using an Octet HTX. The antigen (5 μg/mL) was loaded on the sensor Ni-NTA sensor, followed by a baseline in kinetic buffer. The antigen coated sensor was then dipped into a saturating concentration Antibody 1. A second baseline was then set for 300 seconds. The antigen-Antibody 1 complex was dipped into Antibody 2 solution for 180 seconds and then allowed to dissociate.
# [2] = molecular target: T3, human c-Kit, GNNK+ isoform, expressed on SEM cells (human, UniProt P10721 26-976); assay: flow cytometry cell binding dose curve, SEM cells expressing human GNNK+ c-Kit
# T3 construct: also called SEM (GNNK+); CD117
# Experimental: (§1) The single domain antibodies were tested at a starting concentration of 50 nM, followed by 5-fold serial dilutions for an 8-point dose curve. All washes and dilutions of cells, antibodies, and reagents were performed using flow buffer (lx phosphate buffered saline (PBS), 1% bovine serum albumin (BSA), and 0.1% NaN₃). Cells were pelleted and resuspended at 1×10⁶ cells/mL in flow buffer. Then, 50 μL cells were combined with 50 μL of test antibody and incubated 30 minutes at 4° C., followed by two wash steps with flow buffer. Cells were then resuspended in 50 μL PE-conjugated secondary diluted to 1.25 μg/mL (Southern Biotech #2042-09) and incubated for 20 minutes at 4° C. After two wash steps, cells were resuspended in flow buffer and analyzed using a BD Celesta system. PE mean fluorescence intensity was plotted as a fold over background (cells incubated with secondary detection antibody only).
# (§2) To determine cell binding EC50 values for example anti-c-Kit single domain antibodies of the present disclosure, cell binding dose curves were performed on SEM cells expressing human GNNK+c-Kit isoform, SEM cells expressing human GNNK− c-Kit isoform, and NOMO-1 cells expressing human c-Kit. The single domain antibodies were tested at a starting dose of 50 nM, followed by 5-fold serial dilutions for an 8-point dose curve as described in Example 2. The transformed data were plotted as an xy-graph using the non-linear regression curve fit (available in GraphPad Prism 8.4.3) to obtain the EC50 values (nM), which are summarized in Table E2.
# [3] = molecular target: T1, human c-Kit, GNNK- isoform, expressed …; assay: flow cytometry, antibody supernatant on SEM cells expressing human c-Kit GNNK-, PE secondary
# [4] = molecular target: T4, human c-Kit expressed on NOMO-1 cells (human, UniProt P10721 26-976); assay: flow cytometry cell binding dose curve, NOMO-1 cells expressing human c-Kit
# T4 construct: Endogenous c-Kit of the NOMO-1 AML cell line
# Experimental: as §1, §2
# [5] = molecular target: T4, human c-Kit expressed on NOMO-1 cells; assay: flow cytometry, antibody supernatant on NOMO-1 cells expressing c-Kit, PE secondary
# Experimental: (§3) Pelleted cells were resuspended in flow buffer (lx phosphate buffered saline (PBS), 1% bovine serum albumin (BSA), and 0.1% NaN₃) at 1.25×10⁶ cells/mL. Antibody-containing supernatants were diluted 1:5 in flow buffer and 40 μL cells plus 10 μL diluted antibody supernatant were incubated for 30 minutes at 4° C. Cells were washed with flow buffer and resuspended in 50 μL phycoerythrin (PE)-conjugated secondary antibody (Southern Biotech #2042-09) diluted in flow buffer to 1.25 μg/mL and incubated for 20 minutes at 4° C. After two wash steps, cells were resuspended in flow buffer and analyzed using a Guava easyCyte 8HT system. Table E1 summarizes the target binding activity of the anti-c-Kit single domain antibodies as fold over background MFI signal.
# [6] = molecular target: T3, human c-Kit, GNNK+ isoform, expressed …; assay: flow cytometry, antibody supernatant on SEM cells expressing human c-Kit GNNK+, PE secondary
# Experimental: as §3
# [7] = molecular target: T1, human c-Kit, GNNK- isoform, expressed …; assay: flow cytometry cell binding dose curve, SEM cells expressing human GNNK- c-Kit
Kd [1],EC50 [2],fold over background MFI signal [3],EC50 [4],fold over background MFI signal [5],fold over background MFI signal [6],EC50 [7],Binder
,,1790 fold over background,,43.9 fold over background,934 fold over background,,"anti-c-Kit single domain antibody Clone ID # 408389 (VHH, also called F06 family) VHH: EVQLLESGGGLVQPGGSLRLSCAASGFTFDSYAMSWVRQAPGEGLEWVSAISTGGGSTYYADSVKGRFTISRDNSKNMLFLQMNSLRAEDTAVYSCATGYDSSGYYYGGFDYRGQGTLVTVSS"
,,1740 fold over background,,31.1 fold over background,829 fold over background,,"anti-c-Kit single domain antibody Clone ID # 407922 (VHH, also called F06 family) VHH: EVQLLESGGGLVQPGGSLRLSCAASGLTISSYAMSWVRQAPGKGLEWVSAISTGGSRTYYADSVKGRFTISRDNSKNTLYLQMNSLRAEDTAVYFCATGYDSSGHYYGGFDYRGQGTLVTVSS"

# Further lines, the binder ahead of its results:
Binder,Kd [1],EC50 [2],fold over background MFI signal [3],EC50 [4],fold over background MFI signal [5],fold over background MFI signal [6],EC50 [7]
"anti-c-Kit single domain antibody Clone ID # 408198 (VHH, also called F18 family) VHH: QLQLQESGPGLVKPSETLSLTCTVSGGSISSSSYYWGWIRQPPGKGLEWIGSIDYNGGTYNNPSLKSRVTISVDTSKNQFSLKLSYVTAADTAVYYCARQNPRRYASGASDYRGQGTLVTVSS",7.28 nM,0.25 nM,103 fold over background,0.32 nM,45.7 fold over background,388 fold over background,0.58 nM
"anti-c-Kit single domain antibody Clone ID # 408366 (VHH, also called F06 family) VHH: EVQLLESGGGLVQPGGSLRLSCAASGLTISTYAMSWVRQAPGKGLEWVSAISTGGSSTYYADSVKGRFTISRDNSKNTLYLQMNSLRAEDTAVYYCATGYDSSGHYYGGFDYRGQGTLVTVSS",4.71 nM,0.08 nM,1760 fold over background,0.39 nM,43.2 fold over background,945 fold over background,0.09 nM
"anti-c-Kit single domain antibody Clone ID # 407921 (VHH, also called F06 family) VHH: EVQLLESGGGLVQPGGSLRLSCAASGFTFDSYAMSWVRQAPGKGLEWVSAISVRGGSTYYADSVKGRFTISRDNSKNTLYLQMNSLRAEDTAVYSCATGYDPSGHYYGGFDYRGQGTLVTVSS",2.77 nM,0.03 nM,1750 fold over background,0.26 nM,30.5 fold over background,814 fold over background,0.03 nM
